Assay results as given in the supplement of paper PMC10567573.

B1: RPS21 (parent)
chain: AEVSWEPGRREGCDICAGKAGCPI
B2: RHOBTB3 (parent)
chain: DSCCPAGIFQAMCLLICAEMYQVS

Variants of: B1
Experiment: protein stability index of a GFP-peptide fusion (GPS, HEK-293T) (PSI 1-6); higher = more stable
Conditions: c terminus: a fixed tail appended
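Further: lentivirally expressed fusions sorted by FACS into six bins by GFP to DsRed ratio, PSI derived from sequencing read proportions per bin multiplied by bin number.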

Compared with AEVSWEPGRREGCDTCAGKAGCPI [I15T], AEVSWEPGRREGCDRCAGKAGCPI [I15R] is lower in protein stability index: 3.83 for the first, 2.96 for the second.

Compared with AEVSWEPGRREGCDMCAGKAGCPI [I15M], AEVSWEPGRREGCDFCAGKAGCPI [I15F] is lower in protein stability index: 3.42 for the first, 2.08 for the second.

First: AEVSWEPGRREGCDYCAGKAGCPI [I15Y]
Second: AEVSWEPGRREGCDWCAGKAGCPI [I15W]
The protein stability index of the first is lower: 3.21 for the first, 3.74 for the second.

Compared with AEVSWEPGRREGCDQCAGKAGCPI [I15Q], AEVSWEPGRREGCDHCAGKAGCPI [I15H] is higher in protein stability index: 3.46 for the first, 4.36 for the second.

First: AEVSWEPGRREGCDECAGKAGCPI [I15E]
Second: AEVSWEPGRREGCDVCAGKAGCPI [I15V]
The protein stability index of the first is higher: 4.25 for the first, 3.53 for the second.

Compared with AEVSWEPGRREGCDGCAGKAGCPI [I15G], AEVSWEPGRREGCDICAGKAGCPV [I24V] is lower in protein stability index: 4.06 for the first, 3.19 for the second.

First: AEVSWEPGRREGCDICAGKAGCPA [I24A]
Second: AEVSWEPGRREGCDICAGKAGCPH [I24H]
The protein stability index of the first is lower: 4.48 for the first, 5.43 for the second.

Going from AEVSWEPGRREGCDICAGKAGCPE [I24E] to AEVSWEPGRREGCDICAGKAGCPY [I24Y], the protein stability index falls from 4.76 to 2.54.

First: AEVSWEPGRREGCDICAGKAGCPS [I24S]
Second: AEVSWEPGRREGCDICAGKAGCPC [I24C]
The protein stability index of the first is lower: 3.79 for the first, 5.83 for the second.

Compared with AEVSWEPGRREGCDICAGKAGCPG [I24G], AEVSWEPGRREGCDICAGKAGCPT [I24T] is higher in protein stability index: 3.41 for the first, 3.96 for the second.

Going from AEVSWEPGRREGCDICAGKAGCFI [P23F] to AEVSWEPGRREGCDICAGKAGCEI [P23E], the protein stability index rises from 2.04 to 3.1.

Going from AEVSWEPGRREGCDICAGKAGCAI [P23A] to AEVSWEPGRREGCDICAGKAGCLI [P23L], the protein stability index rises from 2.32 to 2.92.

Compared with AEVSWEPGRREGCDICAGKAGCII [P23I], AEVSWEPGRREGCDICAGKAGCYI [P23Y] is lower in protein stability index: 3.05 for the first, 1.73 for the second.

Going from AEVSWEPGRREGCDICAGKAGCQI [P23Q] to AEVSWEPGRREGCDICAGKAGCMI [P23M], the protein stability index falls from 2.68 to 1.48.

First: AEVSWEPGRREGCDICAGKAGCHI [P23H]
Second: AEVSWEPGRREGCDICAGKAGCDI [P23D]
The protein stability index of the first is lower: 2.61 for the first, 3.85 for the second.

Going from AEVSWEPGRREGCDICAGKAGCWI [P23W] to AEVSWEPGRREGCDICAGKAGCKI [P23K], the protein stability index rises from 1.8 to 3.04.

Compared with AEVSWEPGRREGCDICAGKAGCTI [P23T], AEVSWEPGRREGCDICAGKAGCVI [P23V] is lower in protein stability index: 2.27 for the first, 2.18 for the second.

Compared with AEVSWEPGRREGCDICAGKAGCNI [P23N], AEVSWEPGRREGCDICAGKAGCGI [P23G] is higher in protein stability index: 2.62 for the first, 3.82 for the second.

Variants of: B2
Experiment: as above
Conditions: c terminus: a fixed tail appended

Going from DSCCPAGPFQAMCLLICAEMYQVS [I8P] to DSCCPAGEFQAMCLLICAEMYQVS [I8E], the protein stability index falls from 1.68 to 1.48.

First: DSCCPAGRFQAMCLLICAEMYQVS [I8R]
Second: DSCCPAGMFQAMCLLICAEMYQVS [I8M]
The protein stability index of the first is higher: 2.55 for the first, 1.95 for the second.

Compared with DSCCPAGVFQAMCLLICAEMYQVS [I8V], DSCCPAIIFQAMCLLICAEMYQVS [G7I] is lower in protein stability index: 3.73 for the first, 3.28 for the second.

Compared with DSCCPAEIFQAMCLLICAEMYQVS [G7E], DSCCPAFIFQAMCLLICAEMYQVS [G7F] is higher in protein stability index: 1.72 for the first, 2.49 for the second.

First: DSCCPAHIFQAMCLLICAEMYQVS [G7H]
Second: DSCCPANIFQAMCLLICAEMYQVS [G7N]
The protein stability index of the first is higher: 2.75 for the first, 2.19 for the second.

Going from DSCCPAYIFQAMCLLICAEMYQVS [G7Y] to DWCCPAGIFQAMCLLICAEMYQVS [S2W], the protein stability index rises from 2.8 to 3.17.

First: DNCCPAGIFQAMCLLICAEMYQVS [S2N]
Second: DPCCPAGIFQAMCLLICAEMYQVS [S2P]
The protein stability index of the first is higher: 3.1 for the first, 2.93 for the second.

First: DLCCPAGIFQAMCLLICAEMYQVS [S2L]
Second: DKCCPAGIFQAMCLLICAEMYQVS [S2K]
The protein stability index of the first is lower: 2.17 for the first, 4.66 for the second.

Going from DTCCPAGIFQAMCLLICAEMYQVS [S2T] to DICCPAGIFQAMCLLICAEMYQVS [S2I], the protein stability index falls from 3.94 to 3.54.

Going from DSCCLAGIFQAMCLLICAEMYQVS [P5L] to DSCCNAGIFQAMCLLICAEMYQVS [P5N], the protein stability index rises from 2.87 to 3.01.

Going from DSCCKAGIFQAMCLLICAEMYQVS [P5K] to DSCCIAGIFQAMCLLICAEMYQVS [P5I], the protein stability index rises from 2.16 to 2.61.

First: DSCCAAGIFQAMCLLICAEMYQVS [P5A]
Second: DSCCHAGIFQAMCLLICAEMYQVS [P5H]
The protein stability index of the first is lower: 1.65 for the first, 3.17 for the second.

First: DSKCPAGIFQAMCLLICAEMYQVS [C3K]
Second: DSRCPAGIFQAMCLLICAEMYQVS [C3R]
The protein stability index of the first is higher: 3.1 for the first, 2.33 for the second.

Going from DSPCPAGIFQAMCLLICAEMYQVS [C3P] to DSHCPAGIFQAMCLLICAEMYQVS [C3H], the protein stability index falls from 2.93 to 1.02.

First: DSSCPAGIFQAMCLLICAEMYQVS [C3S]
Second: DSACPAGIFQAMCLLICAEMYQVS [C3A]
The protein stability index of the first is lower: 3.1 for the first, 3.18 for the second.

Going from DSTCPAGIFQAMCLLICAEMYQVS [C3T] to DSCCPAGIDQAMCLLICAEMYQVS [F9D], the protein stability index rises from 1.39 to 1.51.

First: DSCCPAGIAQAMCLLICAEMYQVS [F9A]
Second: DSCPPAGIFQAMCLLICAEMYQVS [C4P]
The protein stability index of the first is higher: 2.97 for the first, 2.84 for the second.

Compared with DSCFPAGIFQAMCLLICAEMYQVS [C4F], DSCVPAGIFQAMCLLICAEMYQVS [C4V] is lower in protein stability index: 2.94 for the first, 2.88 for the second.

First: DSCQPAGIFQAMCLLICAEMYQVS [C4Q]
Second: DSCTPAGIFQAMCLLICAEMYQVS [C4T]
The protein stability index of the first is higher: 2.56 for the first, 2.08 for the second.

First: DSCGPAGIFQAMCLLICAEMYQVS [C4G]
Second: DSCMPAGIFQAMCLLICAEMYQVS [C4M]
The protein stability index of the first is lower: 2.06 for the first, 4 for the second.

First: DSCHPAGIFQAMCLLICAEMYQVS [C4H]
Second: ASCCPAGIFQAMCLLICAEMYQVS [D1A]
The protein stability index of the first is higher: 4.64 for the first, 3.58 for the second.

First: NSCCPAGIFQAMCLLICAEMYQVS [D1N]
Second: ESCCPAGIFQAMCLLICAEMYQVS [D1E]
The protein stability index of the first is higher: 3.73 for the first, 2.3 for the second.

Going from MSCCPAGIFQAMCLLICAEMYQVS [D1M] to SSCCPAGIFQAMCLLICAEMYQVS [D1S], the protein stability index falls from 3.85 to 2.77.

First: ISCCPAGIFQAMCLLICAEMYQVS [D1I]
Second: PSCCPAGIFQAMCLLICAEMYQVS [D1P]
The protein stability index of the first is higher: 2.69 for the first, 1.89 for the second.

First: TSCCPAGIFQAMCLLICAEMYQVS [D1T]
Second: RSCCPAGIFQAMCLLICAEMYQVS [D1R]
The protein stability index of the first is higher: 3.52 for the first, 2.64 for the second.

Compared with DSCCPTGIFQAMCLLICAEMYQVS [A6T], DSCCPMGIFQAMCLLICAEMYQVS [A6M] is higher in protein stability index: 2.9 for the first, 4.16 for the second.

First: DSCCPVGIFQAMCLLICAEMYQVS [A6V]
Second: DSCCPKGIFQAMCLLICAEMYQVS [A6K]
The protein stability index of the first is lower: 3.18 for the first, 3.98 for the second.

DSCCPIGIFQAMCLLICAEMYQVS [A6I] and DSCCPPGIFQAMCLLICAEMYQVS [A6P] are the same in protein stability index: 2.76 for the first, 2.76 for the second.

Going from DSCCPLGIFQAMCLLICAEMYQVS [A6L] to DSCCPCGIFQAMCLLICAEMYQVS [A6C], the protein stability index rises from 2 to 3.25.
